Laboratory results as given in the supplement of paper PMC10567573.

B1: TCEB3B (parent)
chain: STTALGDKQRKANESKGTRESWDS
B2: PTPRD (parent)
chain: ITWFKDFLPVDTSNNNGRIKQLRS

Variants of: B1
Experiment: protein stability index of a GFP-peptide fusion (GPS, HEK-293T) (PSI 1-6); higher = more stable
Conditions: c terminus: a fixed tail appended
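Note: lentivirally expressed fusions sorted by FACS into six bins by GFP to DsRed ratio, PSI derived from sequencing read proportions per bin multiplied by bin number.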

Protein stability index of substitutions, site by site:
T3: P 4.02 | D 3.98 | C 3.22 | H 4.21 | E 4.33 | K 3.56 | N 3.77 | A 3.89 | M 4.1 | G 4.22 | L 3.83 | F 3.32 | I 3.72
S1: K 3.12 | F 2.81 | H 3.64 | W 2.74 | M 4.22 | R 3.88 | E 3.85 | A 3.94 | T 3.61 | N 4.3 | Q 3.67 | I 3.58 | G 3.9 | Y 3.6 | P 3.77 | L 3.67 | D 4.16 | C 3.47 | V 4.06
T2: L 3.67 | R 5.3 | A 4.32 | K 4.11 | M 3.94 | N 4.25 | D 4.01 | Q 3.33 | Y 3.33 | S 4.09 | I 3.29 | F 3.75 | W 3.16 | E 4.05 | G 3.49 | P 3.94 | H 3.77 | V 3.67 | C 3.8

Variants of: B2
Experiment: as above
Conditions: c terminus: a fixed tail appended

Protein stability index of substitutions, site by site:
S24: I 1.97 | V 1.52 | R 2.18 | A 1.96 | Y 1.94 | G 2.34 | Q 1.78 | L 1.41 | C 2.32 | H 1.74 | M 1.54 | P 1.34 | D 1.9 | F 1.69 | W 2.63 | K 2.15 | T 1.51 | E 1.77 | N 1.88
Q21: E 2.2 | P 2.01 | L 1.73 | T 1.69 | N 1.99 | G 2.28 | F 1.75 | S 2.38 | I 2.23 | V 1.67 | W 2.24 | K 2.58 | M 1.45 | A 1.57 | Y 1.93 | D 2.17 | C 1.52 | H 1.56 | R 1.55
L22: W 1.84 | C 1.61 | F 2.01 | G 1.84 | A 1.69 | T 2.12 | K 1.77 | Q 1.62 | D 2 | I 2.24 | R 1.83 | S 2.04 | E 2.07 | V 1.62 | Y 2.73 | P 1.63 | N 2.01 | H 2.28 | M 1.88
I19: C 1.69 | L 2.07 | K 2.33 | W 1.46 | S 1.54 | Y 2.13 | H 1.53 | M 2.04 | V 1.73 | R 1.84 | D 2.08 | F 2.25 | Q 2.57 | N 1.95 | P 1.69 | T 2.23 | E 1.95 | A 1.72 | G 2.24
R18: W 1.62 | Y 2.1
R23: V 1.91 | D 2.39 | L 1.81 | W 1.11 | F 1.88 | K 2.55 | Y 1.63 | C 1.43 | E 2.77 | G 1.74 | P 1.8 | A 2.89 | I 1.88 | N 1.83 | S 1.83 | M 1.88 | T 2.04 | Q 2.09 | H 1.74
K20: S 2.72 | L 2 | V 1.68 | P 1.61 | N 2.08 | M 1.55 | Y 2.19 | F 1.98 | H 1.63 | G 1.58 | T 1.95 | W 1.95 | D 2.05 | A 1.66 | Q 1.94 | I 1.31 | E 1.74 | R 1.53 | C 1.43
